Results on two molecules are retold here after patent publication US9926375B2, “Anti-endoglin antibodies and uses thereof” (Tracon Pharmaceuticals, Inc., priority 2014, dated 2018).

Entries after “also recorded” stand apart in the source; their conditions may differ.

Test [1] relates to NASH mice. The test can be described thus: Murine model of non-alcoholic steatohepatitis (NASH; STZ and high fat diet). The format is in vivo, mouse. The text has this:
The purpose of this study was to examine the protective effects of endoglin antibodies on a murine model of NASH.
NASH was established by a single subcutaneous injection of STZ (Sigma, USA) after birth and feeding with a high fat diet (HFD; CLEA Japan, Japan) ad libitum after 4 weeks of age (day 28±2).
Randomization of mice into 6 groups of 10 mice was done at 9 weeks of age (day 63±2), the day before the start of treatment.
Group 3 (Positive control; Temlisartan Group): Ten NASH mice were be orally administered pure water supplemented with telmisartan at a dose of 10 mg/kg once daily from day 63 to 84.
Group 4 (Antibody M1043: M1043 Group): Ten NASH mice were intravenously administered vehicle supplemented with Antibody M1043 at a dose of 10 mg/kg twice weekly at day 63, 66, 70, 73, 77 and 80.
Group 5 (Antibody TRC105; TRC105 Group): Ten NASH mice were intravenously administered vehicle supplemented with Antibody TRC105 at a dose of 10 mg/kg twice weekly at day 63, 66, 70, 73, 77 and 80.
Group 6 (Antibody TRC205; TRC205 Group): Ten NASH mice were intravenously administered vehicle supplemented with Antibody TRC205 at a dose of 10 mg/kg twice weekly at days 63, 66, 70, 73, 77 and 80.
Mice in all groups were terminated for the following assays at 12 weeks of age.
H&E staining of liver tissue was conducted to estimate NAFLD Activity score.
Total NAS score represents the sum of scores for steatosis, lobular inflammation, and ballooning, and ranges from 0-8. Diagnosis of NASH (or, alternatively, fatty liver not diagnostic of NASH) should be made first, then NAS is used to grade activity. In the reference study, NAS scores of 0-2 occurred in cases largely considered not diagnostic of NASH, scores of 3-4 were evenly divided among those considered not diagnostic, borderline, or positive for NASH. Scores of 5-8 occurred in cases that were largely considered diagnostic of NASH.
Statistical tests were performed using Bonferroni Multiple Comparison Test. P values<0.05 were considered statistically significant.

The target of test [2] is T1, human CD105 (Homo sapiens, UniProt P17813).
T1 construct: purchased R&D Systems 1097-EN
T1 sequence (P17813 26-586 limits assumed): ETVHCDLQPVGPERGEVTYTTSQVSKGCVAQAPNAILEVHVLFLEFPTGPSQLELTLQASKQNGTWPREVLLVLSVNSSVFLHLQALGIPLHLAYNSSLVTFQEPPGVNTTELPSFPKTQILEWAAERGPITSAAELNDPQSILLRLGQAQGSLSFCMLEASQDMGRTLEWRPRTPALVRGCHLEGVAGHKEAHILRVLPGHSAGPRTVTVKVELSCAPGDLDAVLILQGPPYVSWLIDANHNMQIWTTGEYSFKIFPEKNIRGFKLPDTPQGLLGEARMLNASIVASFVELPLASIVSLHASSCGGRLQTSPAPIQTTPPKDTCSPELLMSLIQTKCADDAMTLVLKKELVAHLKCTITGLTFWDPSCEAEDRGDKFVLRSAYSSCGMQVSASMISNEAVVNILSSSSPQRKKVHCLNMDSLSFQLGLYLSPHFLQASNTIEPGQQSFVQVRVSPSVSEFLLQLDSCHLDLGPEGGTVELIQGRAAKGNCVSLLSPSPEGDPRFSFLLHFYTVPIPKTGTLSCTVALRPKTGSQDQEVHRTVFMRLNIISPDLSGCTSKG
The test can be described thus: ELISA binding of biotinylated TRC205 antibody to human CD105. The settings on record: from the binding curve. The procedure:
An ELISA was established to determine the binding of biotinylated TRC205 antibody to human CD105 as follows: The TRC205 antibody (SEQ ID NO 89/SEQ ID NO 93; IgG4) was biotinylated using a Lightning-Link Biotin Conjugation Kit (Type A) (Innova Biosciences Cat. No. 704-0010) according to the manufacturer's instructions. […] After washing three times with PBST, a three-fold dilution series of biotinylated TRC205 antibody (10 μg/ml to 0.014 μg/ml) in PBST/2% BSA was added in duplicate to the plate. Following incubation for 1 hour at room temperature, the plate was washed three times with PBST and binding of the biotinylated TRC205 antibody was detected using streptavidin-HRP (Sigma Cat. No. 55512) and TMB substrate (Sigma Cat. No. T0440). OD450 nm values were measured on a Dynex MRX TCII plate reader.

In test [3] the target is T1, human CD105. As to the kind of experiment: Competition ELISA against biotinylated TRC205 antibody for binding to human CD105. The note with it: biotinylated TRC205 55 ng/ml. The procedure: After washing three times with PBST, a three-fold dilution series of either human BMP9 (R&D Systems Cat. No. 3209-BP-010) (413 nM to 0.56 nM), or unlabelled TRC205 antibody (40 nM to 0.05 nM) or a single concentration of an irrelevant antibody (66 nM) was mixed with a fixed concentration of biotinylated TRC205 antibody (55 ng/ml) and added to the plate. Following incubation for 1 hour at room temperature, the plate was washed three times with PBST and binding of the biotinylated TRC205 antibody was detected using streptavidin-HRP (Sigma Cat. No. 55512) and TMB substrate (Sigma Cat. No. T0440). OD450 nm values were measured on a Dynex MRX TCII plate reader.

In test [4] the target is T2, mouse endoglin (Mus musculus, UniProt Q63961).
T2 construct: purchased R&D Systems 1320-EN-025
T2 sequence (Q63961 27-581 limits assumed): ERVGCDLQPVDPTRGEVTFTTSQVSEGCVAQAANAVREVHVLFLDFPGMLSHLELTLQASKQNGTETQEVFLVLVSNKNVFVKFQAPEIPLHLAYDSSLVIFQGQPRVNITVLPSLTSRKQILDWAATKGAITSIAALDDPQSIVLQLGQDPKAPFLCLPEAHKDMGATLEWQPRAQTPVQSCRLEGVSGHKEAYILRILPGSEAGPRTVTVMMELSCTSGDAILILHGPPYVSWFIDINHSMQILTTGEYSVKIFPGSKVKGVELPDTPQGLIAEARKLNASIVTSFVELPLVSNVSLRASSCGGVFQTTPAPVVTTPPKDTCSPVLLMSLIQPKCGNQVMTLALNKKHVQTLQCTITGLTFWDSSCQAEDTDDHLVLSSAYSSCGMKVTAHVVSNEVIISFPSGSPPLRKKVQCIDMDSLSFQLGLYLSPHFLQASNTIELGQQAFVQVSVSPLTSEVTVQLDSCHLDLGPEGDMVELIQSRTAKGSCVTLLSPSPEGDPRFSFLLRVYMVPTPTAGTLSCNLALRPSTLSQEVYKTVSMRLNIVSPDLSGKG
The test can be described thus: Competition ELISA of mouse BMP9 against biotinylated M1043 for binding to mouse endoglin. The settings on record: 30 μg/ml to 0.004 μg/ml competitor; biotinylated M1043 40 ng/ml. Here is the method:
The ability of mouse BMP9 to compete with the rat antibody M1043 for binding to mouse endoglin was determined by competition ELISA as follows: 200 μg of M1043 antibody was biotinylated with a Lightning-Link biotinylation kit (Innova Biosciences, Cat. No. 704-0010) according to the manufacturers recommendations. Nunc Immuno MaxiSorp 96 well flat bottom plates (Fisher Cat. No. DIS-971-030J) were coated with mouse endoglin (R&D Systems, Cat. No. 1320-EN-025) at 1 μg/ml in PBS overnight at 4° C. The following day the plate was washed three times with PBST before blocking with PBST/3% Marvel at room temperature for 1 hour. A threefold dilution series (30 μg/ml to 0.004 μg/ml) of mouse BMP9 (R&D Systems, Cat. No. 5566-BP-010) or an irrelevant rat IgG1 was mixed with a fixed concentration of biotinylated M1043 (40 ng/ml), added to the plate and incubated for 1 hour at room temperature. Binding of the biotinylated antibody was detected via streptavidin-HRP (Sigma, Cat. No. 55512) and TMB substrate (Sigma, Cat. No. T0440). OD450 nm values were measured on a Dynex MRX TCII plate reader.

The mark [5] stands for this setting: liver gene expression, mean ± SD, Normal-Vehicle 1.0.

B1: TRC205: humanized and deimmunized anti-endoglin antibody (SEQ ID NO 89/SEQ ID NO 93; IgG4) (antibody, V domains shown)
VH: EVQLVESGGGLVKPGGSLRLSCAASGFTFSDAWMDWVRQAPGKGLEWVGEARSKASNHATYYAESVKGRFTISRDDSKNTLYLQMNSLKTEDTAVYYCTRWRRFFDSWGQGTLVTVSS
VL: DIQMTQSPSSLSASVGDRATITCRASSSVSYMHWYQQKPGKAPKPWAYATSNLASGVPSRFSGSGSGTDYTLTISSLQPEDFATYYCQQWSSNPLTFGGGTKVEIK
As to B1, in test [1] (Bonferroni, P<0.05), the “Alpha-smooth muscle actin mRNA expression levels compared with the NASH-Vehicle group” value was “significantly down-regulated”, the “Liver triglyceride contents compared with the NASH-Vehicle group” value is “significant decreases”, the “Mean liver-to-body weight ratio compared with the NASH-Vehicle group” value is given as “tended to decrease; also recorded: no significant difference” and the “NAS compared with the NASH-Vehicle group” value is on record as “significant decreases in NAS; also recorded: significant reductions of NAS”. For the same molecule, in test [1] (Bonferroni, P<0.05), the “Serum alanine aminotransferase (ALT) levels compared with the NASH-Vehicle group” value is given as “tended to decrease”, the “Serum alkaline phosphatase (ALP) levels compared with the NASH-Vehicle group” value was “significant decrease”, the “Serum aspartate aminotransferase (AST) levels compared with the NASH-Vehicle group” value was “tended to decrease” and the “Tissue inhibitor of metalloproteinase-1 mRNA expression levels compared with the NASH-Vehicle group” value is recorded as “tended to decrease”. Also, the “Tumor necrosis factor-alpha mRNA expression levels compared with the NASH-Vehicle group” value in test [1] (Bonferroni, P<0.05) was “tended to increase”. The “F4/80-positive signals and cells in liver compared with the NASH-Vehicle group” value in test [1] (F4/80 immunostaining, macrophage marker) was “Lower F4/80-positive signals and positive cells”. In test [1] (setting [5]), the “Alpha-SMA mRNA expression” value worked out at 1.1 ± 0.3, the “MCP-1 mRNA expression” value stood at 9.3 ± 9.1, the “TIMP-1 mRNA expression” value was found to be 6.0 ± 2.6 and the “TNF-α mRNA expression” value is 6.2 ± 2.4. In test [1] (mean ± SD), the Liver triglyceride is given as 29.3 ± 9.4 mg/g liver, the “Serum ALP” value is recorded as 264 ± 63 U/L, the “Serum ALT” value was determined as 28 ± 16 U/L and the “Serum AST” value is given as 83 ± 41 U/L. For the same molecule, the Sirius red-positive area in test [1] (mean ± SD, liver sections) was found to be 0.93 ± 0.14%. For the same molecule, the “NAS (NAFLD Activity score)” value in test [1] (mean ± SD, range 0-8, 10 mg/kg) is listed as 3.6 ± 1.1. Also, the “Lobular inflammation score 0, number of mice” value in test [1] (score 0 = No Foci) was 5. Further, the “Hepatocyte ballooning score 0, number of mice” value in test [1] (score 0 = None) is listed as 1. Besides, the “Steatosis score 1, number of mice” value in test [1] (score 1 = 5-33%) amounted to 6. Moreover, in test [1] (score 1 = Few balloon cells), the “Hepatocyte ballooning score 1, number of mice” value came to 4. Besides, the “Lobular inflammation score 2, number of mice” value in test [1] (score 2 = 2-4 foci/200x) worked out at 4. Besides, the “Steatosis score 2, number of mice” value in test [1] (score 2 = >33-66%) stood at 3. Besides, the “Hepatocyte ballooning score 2, number of mice” value in test [1] (score 2 = Many cells/prominent ballooning) was found to be 4. The “Inflammatory cell infiltration in the liver” value in test [1] (summary of lobular inflammation score and F4/80 immunostaining) is recorded as “reductions in inflammatory cell infiltration in the liver”. In test [2], the “EC50 of binding to human CD105” value turned out to be 0.046 µg/mL. For the same molecule, the “IC50 of competition with biotinylated TRC205 antibody” value in test [3] stood at 0.26 µg/mL.

B2: mouse BMP9: mouse BMP9 (R&D Systems, Cat. No. 5566-BP-010), endoglin ligand (protein)
chain: STGASSHCQKTSLRVNFEDIGWDSWIIAPKEYDAYECKGGCFFPLADDVTPTKHAIVQTLVHLKFPTKVGKACCVPTKLSPISILYKDDMGVPTLKYHYEGMSVAECGCR
B2: in test [4], the “Competition with biotinylated M1043 for binding to mouse endoglin” value is “competed with biotinylated M1043 for binding to mouse endoglin”.
